Measurements from publication PMC9482650, “Quantitative fragmentomics allow affinity mapping of interactomes” (Nature Communications, 2022).

Tests used:
Test in all cases: holdup assay
Set-up in all cases: key: below the threshold = too weak to quantify, mostly under pKd 3.1 to 4
GRIP1_4, Q9Y3R0 = molecular target: T1, GRIP1_4, Q9Y3R0
T1 sequence (Q9Y3R0 467-571, limits assumed, looked up): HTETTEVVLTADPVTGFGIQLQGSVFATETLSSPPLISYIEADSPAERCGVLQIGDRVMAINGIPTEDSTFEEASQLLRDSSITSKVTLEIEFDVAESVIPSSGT

MAGI2_4, Q86UL8 = molecular target: MAGI2_4, Q86UL8
HTRA1, Q92743 = molecular target: HTRA1, Q92743
DFNB31_2, Q9P202 = molecular target: T2, DFNB31_2, Q9P202
T2 sequence (Q9P202 274-371, limits assumed, looked up): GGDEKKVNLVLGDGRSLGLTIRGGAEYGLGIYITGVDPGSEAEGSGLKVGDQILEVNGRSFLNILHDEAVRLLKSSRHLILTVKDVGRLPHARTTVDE

Inadl_1, Q8NI35 = molecular target: Inadl_1, Q8NI35
GOPC, Q9HD26 = molecular target: GOPC, Q9HD26
Inadl_4, Q8NI35 = molecular target: Inadl_4, Q8NI35
TJP3_3, O95049 = molecular target: T3, TJP3_3, O95049
T3 sequence (O95049 375-456, limits assumed, looked up): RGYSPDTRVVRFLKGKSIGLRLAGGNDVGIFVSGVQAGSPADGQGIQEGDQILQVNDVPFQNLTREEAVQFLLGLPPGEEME

FRMPD1, Q5SYB0 = molecular target: T4, FRMPD1, Q5SYB0
T4 sequence (Q5SYB0 52-145, limits assumed, looked up): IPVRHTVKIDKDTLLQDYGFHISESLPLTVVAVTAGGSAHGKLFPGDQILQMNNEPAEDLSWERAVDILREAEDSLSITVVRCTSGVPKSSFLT

Inadl_3, Q8NI35 = molecular target: Inadl_3, Q8NI35
MPDZ_10, O75970 = molecular target: T5, MPDZ_10, O75970
T5 sequence (O75970 1624-1722, limits assumed, looked up): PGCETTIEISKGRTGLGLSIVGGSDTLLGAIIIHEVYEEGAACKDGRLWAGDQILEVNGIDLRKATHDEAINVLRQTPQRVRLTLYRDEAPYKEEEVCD

TIAM2, Q8IVF5 = molecular target: T6, TIAM2, Q8IVF5
T6 sequence (Q8IVF5 885-986, limits assumed, looked up): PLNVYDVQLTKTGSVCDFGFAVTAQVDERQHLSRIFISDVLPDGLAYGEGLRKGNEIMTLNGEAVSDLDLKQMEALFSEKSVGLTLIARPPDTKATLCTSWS

TJP2_1, Q9UDY2 = molecular target: TJP2_1, Q9UDY2
NHERF4_1, Q86UT5-2 = molecular target: NHERF4_1, Q86UT5-2
GIPC2, Q8TF65 = molecular target: GIPC2, Q8TF65
APBA1_1, Q02410 = molecular target: T7, APBA1_1, Q02410
T7 sequence (Q02410 651-752, limits assumed, looked up): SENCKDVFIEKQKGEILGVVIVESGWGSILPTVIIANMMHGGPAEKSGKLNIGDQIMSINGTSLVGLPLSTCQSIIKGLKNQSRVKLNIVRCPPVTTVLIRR

NOS1, P29475 = molecular target: NOS1, P29475
GRIP1_5, Q9Y3R0 = molecular target: T8, GRIP1_5, Q9Y3R0
T8 sequence (Q9Y3R0 568-668, limits assumed, looked up): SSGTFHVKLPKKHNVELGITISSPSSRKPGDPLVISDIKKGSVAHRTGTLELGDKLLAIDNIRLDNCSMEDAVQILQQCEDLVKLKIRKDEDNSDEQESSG

DLG4_3, P78352 = molecular target: DLG4_3, P78352
SCRIB_3, Q14160 = molecular target: SCRIB_3, Q14160
HTRA4, P83105 = molecular target: T9, HTRA4, P83105
T9 sequence (P83105 378-476, limits assumed, looked up): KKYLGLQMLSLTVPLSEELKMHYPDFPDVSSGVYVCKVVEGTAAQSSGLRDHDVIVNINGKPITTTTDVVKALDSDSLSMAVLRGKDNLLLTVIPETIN

APBA1_2, Q02410 = molecular target: T10, APBA1_2, Q02410
T10 sequence (Q02410 742-832, limits assumed, looked up): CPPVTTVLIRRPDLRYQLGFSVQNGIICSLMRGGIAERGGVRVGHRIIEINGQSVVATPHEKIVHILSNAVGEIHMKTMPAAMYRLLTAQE

SCRIB_2, Q14160 = molecular target: SCRIB_2, Q14160
Inadl_2, Q8NI35 = molecular target: Inadl_2, Q8NI35
PDZRN3_1, Q9UPQ7 = molecular target: T11, PDZRN3_1, Q9UPQ7
T11 sequence (Q9UPQ7 244-349, limits assumed, looked up): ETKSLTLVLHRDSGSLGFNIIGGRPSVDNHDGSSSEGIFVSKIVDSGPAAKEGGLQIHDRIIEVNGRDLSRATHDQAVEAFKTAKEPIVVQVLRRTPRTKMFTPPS

HTRA3, P83110 = molecular target: T12, HTRA3, P83110
T12 sequence (P83110 354-453, limits assumed, looked up): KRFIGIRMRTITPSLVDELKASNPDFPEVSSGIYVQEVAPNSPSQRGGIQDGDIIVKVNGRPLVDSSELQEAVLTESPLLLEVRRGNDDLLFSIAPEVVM

[1] = plain residues with an end cap or a label only (N-terminal biotin on a linker: none)
[2] = plain residues with an end cap or a label only (N-terminal biotin on a linker: ahx)
[3] = plain residues with an end cap or a label only (N-terminal biotin on a linker: gsgsgs; C-terminal amide)
[4] = plain residues with an end cap or a label only (N-terminal biotin on a linker: ttds)

Sequence of MAGI2_4, Q86UL8 (Q86UL8 772-865): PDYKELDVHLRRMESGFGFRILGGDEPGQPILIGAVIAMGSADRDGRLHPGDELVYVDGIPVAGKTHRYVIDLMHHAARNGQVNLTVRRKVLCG
Sequence of NHERF4_1, Q86UT5-2 (Q86UT5 other isoform, or with tags, fused parts or gaps): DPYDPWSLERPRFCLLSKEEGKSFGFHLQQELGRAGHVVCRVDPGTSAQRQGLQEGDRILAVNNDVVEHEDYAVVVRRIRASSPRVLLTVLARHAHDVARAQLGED
Sequence of Inadl_4, Q8NI35 (Q8NI35 547-651): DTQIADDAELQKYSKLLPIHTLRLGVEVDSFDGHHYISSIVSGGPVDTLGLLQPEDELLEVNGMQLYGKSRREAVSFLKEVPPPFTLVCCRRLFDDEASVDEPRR
Sequence of DLG4_3, P78352 (P78352 306-403): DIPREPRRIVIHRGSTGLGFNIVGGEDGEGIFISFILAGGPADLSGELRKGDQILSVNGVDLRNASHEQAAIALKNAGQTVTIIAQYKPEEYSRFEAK
Sequence of NOS1, P29475 (P29475 9-101): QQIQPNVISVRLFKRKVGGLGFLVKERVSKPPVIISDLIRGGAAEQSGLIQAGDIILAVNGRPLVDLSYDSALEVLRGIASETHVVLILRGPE
Sequence of GIPC2, Q8TF65 (Q8TF65 112-203): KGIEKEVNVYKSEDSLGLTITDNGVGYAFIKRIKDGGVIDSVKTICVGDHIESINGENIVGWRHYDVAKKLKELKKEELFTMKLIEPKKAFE
Sequence of Inadl_2, Q8NI35 (Q8NI35 238-335): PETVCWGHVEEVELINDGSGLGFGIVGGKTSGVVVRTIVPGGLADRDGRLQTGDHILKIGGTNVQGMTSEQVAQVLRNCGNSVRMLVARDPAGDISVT
Sequence of SCRIB_2, Q14160 (Q14160 857-960): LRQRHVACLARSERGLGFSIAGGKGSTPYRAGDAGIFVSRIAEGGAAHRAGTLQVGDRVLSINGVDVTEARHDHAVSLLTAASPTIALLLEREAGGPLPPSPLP
Sequence of Inadl_3, Q8NI35 (Q8NI35 359-469): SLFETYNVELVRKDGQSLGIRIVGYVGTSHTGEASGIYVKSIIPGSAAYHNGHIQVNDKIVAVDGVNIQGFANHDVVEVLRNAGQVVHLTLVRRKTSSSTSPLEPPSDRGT
Sequence of Inadl_1, Q8NI35 (Q8NI35 113-229): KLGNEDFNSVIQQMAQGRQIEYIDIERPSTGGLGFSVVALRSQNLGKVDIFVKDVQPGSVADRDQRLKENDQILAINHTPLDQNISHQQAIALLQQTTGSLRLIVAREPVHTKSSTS
Sequence of TJP2_1, Q9UDY2 (Q9UDY2 24-128): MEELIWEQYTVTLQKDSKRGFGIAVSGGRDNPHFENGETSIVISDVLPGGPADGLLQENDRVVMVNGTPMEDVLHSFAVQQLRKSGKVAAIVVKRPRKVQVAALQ
Sequence of HTRA1, Q92743 (Q92743 360-477): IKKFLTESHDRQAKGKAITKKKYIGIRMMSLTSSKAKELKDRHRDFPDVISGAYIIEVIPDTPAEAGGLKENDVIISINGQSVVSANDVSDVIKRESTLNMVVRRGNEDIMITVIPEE
Sequence of SCRIB_3, Q14160 (Q14160 999-1103): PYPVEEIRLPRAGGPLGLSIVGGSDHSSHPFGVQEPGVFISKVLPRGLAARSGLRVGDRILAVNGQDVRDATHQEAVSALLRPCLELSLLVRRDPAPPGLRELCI

Binder: NLNSSRVPDLLV [SARS-CoV2-E, P0DTC4]
- pKd (GRIP1_4, Q9Y3R0; [1]): below the threshold
- pKd (MAGI2_4, Q86UL8; [1]): 3.65
- pKd (HTRA1, Q92743; [1]): 4.32
- pKd (DFNB31_2, Q9P202; [1]): below the threshold
- pKd (Inadl_1, Q8NI35; [1]): below the threshold
- pKd (GOPC, Q9HD26; [1]): below the threshold
- pKd (Inadl_4, Q8NI35; [1]): below the threshold
- pKd (TJP3_3, O95049; [1]): below the threshold
- pKd (FRMPD1, Q5SYB0; [1]): below the threshold
- pKd (Inadl_3, Q8NI35; [1]): 3.47
- pKd (MPDZ_10, O75970; [1]): below the threshold
- pKd (TIAM2, Q8IVF5; [1]): below the threshold
- pKd (TJP2_1, Q9UDY2; [1]): below the threshold
- pKd (NHERF4_1, Q86UT5-2; [1]): below the threshold
- pKd (GIPC2, Q8TF65; [1]): below the threshold
- pKd (APBA1_1, Q02410; [1]): below the threshold
- pKd (NOS1, P29475; [1]): below the threshold
- pKd (GRIP1_5, Q9Y3R0; [1]): below the threshold
- pKd (DLG4_3, P78352; [1]): below the threshold
- pKd (SCRIB_3, Q14160; [1]): below the threshold
- pKd (HTRA4, P83105; [1]): below the threshold
- pKd (APBA1_2, Q02410; [1]): below the threshold
- pKd (SCRIB_2, Q14160; [1]): below the threshold
- pKd (Inadl_2, Q8NI35; [1]): 3.47
- pKd (PDZRN3_1, Q9UPQ7; [1]): below the threshold
- pKd (HTRA3, P83110; [1]): 3.63

Binder: TVICWPGSLV [LNX2, Q8N448]
- pKd (GRIP1_4, Q9Y3R0; [2]): below the threshold
- pKd (MAGI2_4, Q86UL8; [2]): 5.22
- pKd (HTRA1, Q92743; [2]): 4.94
- pKd (DFNB31_2, Q9P202; [2]): below the threshold
- pKd (Inadl_1, Q8NI35; [2]): below the threshold
- pKd (GOPC, Q9HD26; [2]): 4.33
- pKd (Inadl_4, Q8NI35; [2]): below the threshold
- pKd (TJP3_3, O95049; [2]): 3.5
- pKd (FRMPD1, Q5SYB0; [2]): below the threshold
- pKd (Inadl_3, Q8NI35; [2]): 4.19
- pKd (MPDZ_10, O75970; [2]): 3.9
- pKd (TIAM2, Q8IVF5; [2]): below the threshold
- pKd (TJP2_1, Q9UDY2; [2]): 3.9
- pKd (NHERF4_1, Q86UT5-2; [2]): 3.55
- pKd (GIPC2, Q8TF65; [2]): below the threshold
- pKd (APBA1_1, Q02410; [2]): below the threshold
- pKd (NOS1, P29475; [2]): 3.82
- pKd (GRIP1_5, Q9Y3R0; [2]): below the threshold
- pKd (DLG4_3, P78352; [2]): 3.58
- pKd (SCRIB_3, Q14160; [2]): 4.11
- pKd (HTRA4, P83105; [2]): 4.45
- pKd (APBA1_2, Q02410; [2]): 4.39
- pKd (SCRIB_2, Q14160; [2]): 3.65
- pKd (Inadl_2, Q8NI35; [2]): below the threshold
- pKd (PDZRN3_1, Q9UPQ7; [2]): 4.17
- pKd (HTRA3, P83110; [2]): 3.85

Binder: VSVDDVRSTSQGLSSY [DFNB31_int, Q9P202]
- pKd (GRIP1_4, Q9Y3R0; [3]): below the threshold
- pKd (MAGI2_4, Q86UL8; [3]): below the threshold
- pKd (HTRA1, Q92743; [3]): below the threshold
- pKd (DFNB31_2, Q9P202; [3]): below the threshold
- pKd (Inadl_1, Q8NI35; [3]): below the threshold
- pKd (GOPC, Q9HD26; [3]): below the threshold
- pKd (Inadl_4, Q8NI35; [3]): below the threshold
- pKd (TJP3_3, O95049; [3]): below the threshold
- pKd (FRMPD1, Q5SYB0; [3]): below the threshold
- pKd (Inadl_3, Q8NI35; [3]): below the threshold
- pKd (MPDZ_10, O75970; [3]): below the threshold
- pKd (TIAM2, Q8IVF5; [3]): 3.85
- pKd (TJP2_1, Q9UDY2; [3]): below the threshold
- pKd (NHERF4_1, Q86UT5-2; [3]): below the threshold
- pKd (GIPC2, Q8TF65; [3]): below the threshold
- pKd (APBA1_1, Q02410; [3]): below the threshold
- pKd (NOS1, P29475; [3]): below the threshold
- pKd (GRIP1_5, Q9Y3R0; [3]): below the threshold
- pKd (DLG4_3, P78352; [3]): below the threshold
- pKd (SCRIB_3, Q14160; [3]): below the threshold
- pKd (HTRA4, P83105; [3]): below the threshold
- pKd (APBA1_2, Q02410; [3]): below the threshold
- pKd (SCRIB_2, Q14160; [3]): below the threshold
- pKd (Inadl_2, Q8NI35; [3]): below the threshold
- pKd (PDZRN3_1, Q9UPQ7; [3]): below the threshold
- pKd (HTRA3, P83110; [3]): below the threshold

Binder: PVRVCEETSL [OTULIN, Q96BN8]
- pKd (GRIP1_4, Q9Y3R0; [4]): below the threshold
- pKd (MAGI2_4, Q86UL8; [4]): below the threshold
- pKd (HTRA1, Q92743; [4]): 4.04
- pKd (DFNB31_2, Q9P202; [4]): 3.58
- pKd (Inadl_1, Q8NI35; [4]): 3.7
- pKd (GOPC, Q9HD26; [4]): 4.44
- pKd (Inadl_4, Q8NI35; [4]): below the threshold
- pKd (TJP3_3, O95049; [4]): below the threshold
- pKd (FRMPD1, Q5SYB0; [4]): below the threshold
- pKd (Inadl_3, Q8NI35; [4]): 3.66
- pKd (MPDZ_10, O75970; [4]): below the threshold
- pKd (TIAM2, Q8IVF5; [4]): below the threshold
- pKd (TJP2_1, Q9UDY2; [4]): below the threshold
- pKd (NHERF4_1, Q86UT5-2; [4]): 4.02
- pKd (GIPC2, Q8TF65; [4]): 4.02
- pKd (APBA1_1, Q02410; [4]): below the threshold
- pKd (NOS1, P29475; [4]): 3.79
- pKd (GRIP1_5, Q9Y3R0; [4]): 3.78
- pKd (DLG4_3, P78352; [4]): 3.96
- pKd (SCRIB_3, Q14160; [4]): 5.64
- pKd (HTRA4, P83105; [4]): below the threshold
- pKd (APBA1_2, Q02410; [4]): 3.95
- pKd (SCRIB_2, Q14160; [4]): 4.7
- pKd (Inadl_2, Q8NI35; [4]): below the threshold
- pKd (PDZRN3_1, Q9UPQ7; [4]): 4.99
- pKd (HTRA3, P83110; [4]): below the threshold
